Measured values as given in patent EP4673749A1 (dated 2026).
Values belong to the binder of their own block, whether it stands above or below them.

Experiments:
[1] = target: T1, PRO-C6 sequence KPGVISVMGT (last 10 amino acids of the type VI collagen alpha3 chain, 3168-3177); experiment: hybridoma clone screening with peptides
T1 construct: also called selection peptide; immunogenic peptide
T1 peptide: KPGVISVMGT

[2] = target: T2, truncated peptide KPGVISVMG; experiment: hybridoma clone screening with peptides
T2 construct: Synthetic peptide, American Peptide Company
T2 peptide: KPGVISVMG

[3] = target: T3, elongated peptide KPGVISVMGTA; experiment: hybridoma clone screening with peptides
T3 construct: Synthetic peptide, Chinese Peptide Company
T3 peptide: KPGVISVMGTA

[4] = target: T4, non-sense peptide GSPGKDGVRG; experiment: antibody characterization with peptides (ELISA, as previously described)
T4 construct: Control peptide
T4 peptide: GSPGKDGVRG

[5] = target: T5, elongated peptide CPTGPQNYSPQ (human); experiment: as above
T5 construct: the peptide tested is printed with Pro at that position
T5 peptide: CPTGPQNYSPQ

[6] = target: T6, Pro-C3 target sequence CPTGPQNYSP (C-terminal neo-epitope of PIIINP, residues 144-153 of the alpha1 chain) (human); experiment: as above
T6 construct: Synthetic peptide with free C-terminus (-COOH)
T6 peptide: CPTGPQNYSP

binding result [1]: binds
binding result [2]: no binding
binding result [3]: no binding
B1: PRO-C6 monoclonal antibody 10A3 (antibody, mouse IgG1, kappa, V domains shown)
VH: EVQLQQSGPVMVKPGTSVKTSCKASGYTFTDFNMNWVKQSHGKSLEWIGAINPHNGATSYNQKFSGKATLTVDKSSSTAYMELNSLTSDDSAVYYCARWGNGKNSWGQGTTLTVSS
VL: DVVMTQTPLSLPVNLGDQASISCRSSQRIVHSNGITFLEWYLQKPGQSPKLLIYRVSNRFSGVPDRFSGSGSGTDFTLKISRVEAEDLGLYYCFQGSHVPLTFGAGTRLELKR
notes: Mouse IgG1 / kappa; also called monoclonal antibody specific for PRO-C6

binding result [4]: no binding
binding result [5]: no binding
binding result [6]: binds
B2: Pro-C3 monoclonal antibody (monoclonal antibody NB61N-62) (antibody, mouse IgG2a, kappa, V domains shown)
VH: EVQLQQSGPEVLKPGASVKMSCKASGYTFINYVIHWLKQKAGQGPEWIGYMNPYNDVPKNNAKFRGKARLTSDRSSTTAYMELNSLTSEDSAVYYCARGGFFGPLSYWGQGTLVTVSA
VL: DVLMTQTPLSLSVSLGDQASISCRSSQNIVYSNGDTYFEWYLQKPGQSPKLLIYKVSQRFSGVPDRFSGSGSGTDFTLKISRVETEDLGVYYCFQGAHDPPAFGGGTKLELKR
